7 molecules from paper PMC4627094 can be followed below.

By IC50 is commonly meant the concentration that inhibits the measured activity by half. As a reminder, the Kd is the free concentration of one partner at which half of the binding sites on the other are occupied at equilibrium, for simple one-to-one binding. A low value points to a tighter complex.

For data set [1], the target named is T1, APOBEC3G (A3G) (human, UniProt Q9HC16 1-384). The data set can be described thus: competition (fluorescence anisotropy); vs labeled 25 nt Sub RNA (N2); 40 mM Tris pH 7.2, 50 mM NaCl, 10 mM MgCl2, 1 mM DTT, 0.1% Triton X-100, 2% glycerol, 37 C 20 min; FA with 2 nM labeled NA; UV cross-linking in 1X PBS, 37 C 20. On the technique in general: Polarisation of emitted light reports the rotation of a fluorescent probe.
T1 sequence (Q9HC16 whole entry): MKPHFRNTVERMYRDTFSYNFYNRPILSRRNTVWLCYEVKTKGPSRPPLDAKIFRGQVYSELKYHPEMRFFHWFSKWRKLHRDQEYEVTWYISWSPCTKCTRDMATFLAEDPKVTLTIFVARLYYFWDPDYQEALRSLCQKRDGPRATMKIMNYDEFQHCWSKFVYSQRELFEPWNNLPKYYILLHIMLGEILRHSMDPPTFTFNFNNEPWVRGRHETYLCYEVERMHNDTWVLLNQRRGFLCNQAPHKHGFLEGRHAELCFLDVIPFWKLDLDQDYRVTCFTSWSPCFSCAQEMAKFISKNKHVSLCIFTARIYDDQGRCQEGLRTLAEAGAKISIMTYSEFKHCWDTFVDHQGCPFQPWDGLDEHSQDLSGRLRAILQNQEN

For data set [2], the target named is T1, APOBEC3G (A3G). The data set can be described thus: competition (fluorescence anisotropy); vs labeled 25 nt Sub ssDNA (N1); 40 mM Tris pH 7.2, 50 mM NaCl, 10 mM MgCl2, 1 mM DTT, 0.1% Triton X-100, 2% glycerol, 37 C 20 min; FA with 2 nM labeled NA; UV cross-linking in 1X PBS, 37 C 20.
The target in data set [3] is T1, APOBEC3G (A3G). The data set can be described thus: fluorescence anisotropy; 10 mM MgCl2; 40 mM Tris pH 7.2, 50 mM NaCl, 10 mM MgCl2, 1 mM DTT, 0.1% Triton X-100, 2% glycerol, 37 C 20 min; FA with 2 nM labeled NA; UV cross-linking in 1X PBS, 37 C 20.
Data set [4] concerns the target T1, APOBEC3G (A3G). The data set can be described thus: EMSA; 37 C, 2.0 uM RNA; 40 mM Tris pH 7.2, 50 mM NaCl, 10 mM MgCl2, 1 mM DTT, 0.1% Triton X-100, 2% glycerol, 37 C 20 min; FA with 2 nM labeled NA; UV cross-linking in 1X PBS, 37 C 20. (In general: In EMSA bound probe runs differently from free probe, usually more slowly.)

B1: 25 nt Sub RNA, unlabeled (ssRNA)
RNA: UUAUUUUUAAGGAUUUAUUUAUUUA
Take B1: the IC50 in the data set with APOBEC3G (A3G) [1] was found to be 115 nM; with APOBEC3G (A3G) [2], 57 nM.

B2: 25 nt Sub RNA, Alexa 647 (ssRNA)
RNA: UUAUUUUUAAGGAUUUAUUUAUUUA
Molecule B2 registered an equilibrium dissociation constant (Kd) with APOBEC3G (A3G) [3] of 2.9 nM.

B3: 25 nt ApoB RNA (ssRNA)
RNA: CAUAUAUGAUACAAUUUGAUCAGUA
Turning to B3, in the data set with APOBEC3G (A3G) [4], the binding result is reported as “binds”.

B4: 15 nt Sub ssDNA, Alexa 647 (ssDNA)
DNA: TTATTUUUAAGGATT
modifications: dU at positions 6-8
Take B4: in the data set with APOBEC3G (A3G) [3], the dissociation constant (Kd) came out at 10 nM.

B5: 25 nt Sub ssDNA (unlabeled or 32P) (ssDNA)
DNA: TTATTUUUAAGGATTTATTTATTTA
modifications: dU at positions 6-8
Regarding B5, the IC50 in the data set with APOBEC3G (A3G) [1] worked out at 22 nM; in the data set with APOBEC3G (A3G) [2], 15 nM.

B6: 25 nt Sub ssDNA, Alexa 647 (ssDNA)
DNA: TTATTUUUAAGGATTTATTTATTTA
modifications: dU at positions 6-8
As to B6, the dissociation constant Kd with APOBEC3G (A3G) [3] came out at 3.8 nM.

B7: 15 nt Sub RNA, Alexa 647 (ssRNA)
RNA: UUAUUUUUAAGGAUU
Regarding B7, in the data set with APOBEC3G (A3G) [3], the Kd came to 4.4 nM.
